One molecule from PMC10011603, “TRAK adaptors regulate the recruitment and activation of dynein and kinesin in mitochondrial transport” (Nature Communications, 2023) can be followed below.

Test [1] addresses T1, full-length TRAK2 (TRAK2^1–914) (human, UniProt O60296 1-914).
T1 construct: TRAK2, human, residues 1-914, full length; source: HEK 293 F GNTI-/- cells, PEI transfection, purified (TRAK purification procedure); not shown: His6-ZZ, N-terminal, cleaved; SNAP-tag or GFP, C-terminal, kept
T1 sequence (looked up): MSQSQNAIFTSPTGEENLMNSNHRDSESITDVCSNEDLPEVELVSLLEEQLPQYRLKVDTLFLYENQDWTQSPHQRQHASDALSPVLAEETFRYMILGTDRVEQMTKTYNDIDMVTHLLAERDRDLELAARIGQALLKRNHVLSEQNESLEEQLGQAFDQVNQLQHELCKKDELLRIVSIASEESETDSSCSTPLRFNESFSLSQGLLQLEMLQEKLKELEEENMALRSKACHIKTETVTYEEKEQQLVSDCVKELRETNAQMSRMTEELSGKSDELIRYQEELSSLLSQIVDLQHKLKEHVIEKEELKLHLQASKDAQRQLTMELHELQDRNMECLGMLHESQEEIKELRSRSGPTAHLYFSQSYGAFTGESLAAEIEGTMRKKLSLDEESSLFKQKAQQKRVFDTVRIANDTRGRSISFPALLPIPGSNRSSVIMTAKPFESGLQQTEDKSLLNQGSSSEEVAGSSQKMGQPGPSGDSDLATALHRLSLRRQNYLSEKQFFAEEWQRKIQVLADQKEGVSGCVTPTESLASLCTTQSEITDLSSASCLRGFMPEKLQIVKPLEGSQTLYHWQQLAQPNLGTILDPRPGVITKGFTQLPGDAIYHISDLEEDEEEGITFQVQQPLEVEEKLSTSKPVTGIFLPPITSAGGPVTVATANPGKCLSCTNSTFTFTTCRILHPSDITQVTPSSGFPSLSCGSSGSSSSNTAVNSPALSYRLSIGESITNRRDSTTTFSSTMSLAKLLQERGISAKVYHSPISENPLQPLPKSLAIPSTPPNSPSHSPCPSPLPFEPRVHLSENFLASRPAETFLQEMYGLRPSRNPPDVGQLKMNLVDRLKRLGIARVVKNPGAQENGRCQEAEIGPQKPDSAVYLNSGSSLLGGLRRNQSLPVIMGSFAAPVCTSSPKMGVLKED
Kind of test: co-IP; purified proteins, 10 µg each, GFP-Trap beads, MB buffer with 100 mM NaCl and BSA; KIF5B-GFP-SNAPf, Miro1 1-592 and TRAK1 1-532, full-length TRAK1 or full-length TRAK2; with GTPγS or GDP; 0, 100 nM or 2 mM Ca2+. The following applies: both partners purified.

Test [2] has as its target T2, full-length TRAK1 (TRAK1^1–953) (human, UniProt Q9UPV9 1-953).
T2 construct: TRAK1, human, residues 1-953, full length; source: HEK 293 F GNTI-/- cells, PEI transfection, purified (TRAK purification procedure); not shown: His6-ZZ, N-terminal, cleaved; SNAP-tag or GFP, C-terminal, kept
T2 sequence (looked up): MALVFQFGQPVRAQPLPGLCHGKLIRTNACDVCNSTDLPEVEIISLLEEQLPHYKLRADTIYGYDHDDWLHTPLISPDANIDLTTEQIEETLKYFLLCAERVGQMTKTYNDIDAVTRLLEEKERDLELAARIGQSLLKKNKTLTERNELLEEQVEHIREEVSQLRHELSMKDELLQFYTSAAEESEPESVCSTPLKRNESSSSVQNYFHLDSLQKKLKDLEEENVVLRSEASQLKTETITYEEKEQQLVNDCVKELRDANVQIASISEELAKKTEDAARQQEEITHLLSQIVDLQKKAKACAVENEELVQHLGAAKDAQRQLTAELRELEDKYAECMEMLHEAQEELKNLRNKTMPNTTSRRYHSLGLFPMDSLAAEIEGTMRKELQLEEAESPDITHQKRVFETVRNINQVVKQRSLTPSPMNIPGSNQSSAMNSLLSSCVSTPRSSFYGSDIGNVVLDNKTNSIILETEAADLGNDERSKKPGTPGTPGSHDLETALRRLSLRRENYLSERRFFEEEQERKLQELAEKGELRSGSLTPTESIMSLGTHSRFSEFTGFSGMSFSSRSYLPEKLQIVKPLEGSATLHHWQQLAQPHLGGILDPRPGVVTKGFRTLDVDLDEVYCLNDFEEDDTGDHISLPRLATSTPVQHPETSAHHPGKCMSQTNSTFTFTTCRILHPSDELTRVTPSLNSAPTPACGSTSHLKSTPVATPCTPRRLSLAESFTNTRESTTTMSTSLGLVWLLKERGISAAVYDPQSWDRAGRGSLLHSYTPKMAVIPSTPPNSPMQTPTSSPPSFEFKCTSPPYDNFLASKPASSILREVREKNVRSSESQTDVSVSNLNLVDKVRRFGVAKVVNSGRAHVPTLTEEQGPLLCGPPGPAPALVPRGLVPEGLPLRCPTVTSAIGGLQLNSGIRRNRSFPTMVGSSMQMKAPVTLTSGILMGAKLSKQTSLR
The test can be described thus: single-molecule TIRF colocalisation on microtubules; three-colour imaging of Alexa488-KIF5B, LD555-TRAK1 1-532 (or full-length TRAK1) and LD655-Miro1 1-592; 10 nM MAP7; 0, 0.1 and 2 mM Ca2+. The following applies: both partners purified.

B1: Miro1^1–592 (Miro1^1–592-SNAP-psc-StrepII) (domain or fragment, human, UniProt Q8IXI2 1-592, looked up)
chain: MKKDVRILLVGEPRVGKTSLIMSLVSEEFPEEVPPRAEEITIPADVTPERVPTHIVDYSEAEQSDEQLHQEISQANVICIVYAVNNKHSIDKVTSRWIPLINERTDKDSRLPLILVGNKSDLVEYSSMETILPIMNQYTEIETCVECSAKNLKNISELFYYAQKAVLHPTGPLYCPEEKEMKPACIKALTRIFKISDQDNDGTLNDAELNFFQRICFNTPLAPQALEDVKNVVRKHISDGVADSGLTLKGFLFLHTLFIQRGRHETTWTVLRRFGYDDDLDLTPEYLFPLLKIPPDCTTELNHHAYLFLQSTFDKHDLDRDCALSPDELKDLFKVFPYIPWGPDVNNTVCTNERGWITYQGFLSQWTLTTYLDVQRCLEYLGYLGYSILTEQESQASAVTVTRDKKIDLQKKQTQRNVFRCNVIGVKNCGKSGVLQALLGRNLMRQKKIREDHKSYYAINTVYVYGQEKYLLLHDISESEFLTEAEIICDVVCLVYDVSNPKSFEYCARIFKQHFMDSRIPCLIVAAKSDLHEVKQEYSISPTDFCRKHKMPPPQAFTCNTADAPSKDIFVKLTTMAMYPHVTQADLKSSTF
modifications: LD655 dye on the SNAP tag in motility assays
notes: mitochondrial Rho GTPase 1 (Miro1), human, residues 1-592, lacks the transmembrane domain; A PreScission site (psc) stands between SNAP and StrepII; no cleavage is told; also called Miro1^1–592-StrepII; Miro1^1–592-SNAPf-StrepII; source: purified (Streptactin Sepharose, eluted with desthiobiotin); not shown: SNAP, C-terminal, kept; StrepII, C-terminal, kept
For B1, the binding result in test [1] and in test [2] was “binds” in each case.
